Laboratory results: patent US20230287125A1 (LEPU BIOPHARMA, published 2023)

Experiments:
[1] = molecular target: T1, human PD-L1-his tag protein (human, UniProt Q9NZQ7 19-238); assay: SPR (Biacore), affinity ranking, PDL1-His
T1 construct: also called human PD-L1-His protein; recombinant PD-L1 protein; not shown: his tag

human PD-L1-Fc protein [2] = molecular target: T2, human PD-L1-Fc protein (human, UniProt Q9NZQ7 19-238); assay: ELISA, antibody titrated on coated human PD-L1-Fc, OD 450nm; upper right panel
T2 construct: coating antigen of the ELISAs; also called rhPD-L1-Fc; not shown: Fc
Protocol: (§1) To evaluate antigen binding activity, the humanized antibodies were subjected to ELISA test. Briefly, microtiter plates were coated with human PD-L1-Fc protein at 0.5 μg/ml in PBS, 100 μl/well at 4° C. overnight, then blocked with 200 μl/well of 1% BSA. Three-fold dilutions of humanized antibodies starting from 10 μg/ml were added to each well and incubated for 1 hour at 37° C. The plates were washed with PBS/Tween and then incubated with mouse-anti-human IgG Fab antibody conjugated with Horse Radish Peroxidase (HRP) for 1 hour at 37° C. After washing, the plates were developed with TMB substrate and analyzed by spectrophotometer at OD 450 nm.

human PD-L1-Fc protein [3] = molecular target: T2, human PD-L1-Fc protein; assay: ELISA, antibody titrated on coated human PD-L1-Fc, OD 450nm; upper left panel
Protocol: as §1

T1 sequence (Q9NZQ7 19-238 limits assumed): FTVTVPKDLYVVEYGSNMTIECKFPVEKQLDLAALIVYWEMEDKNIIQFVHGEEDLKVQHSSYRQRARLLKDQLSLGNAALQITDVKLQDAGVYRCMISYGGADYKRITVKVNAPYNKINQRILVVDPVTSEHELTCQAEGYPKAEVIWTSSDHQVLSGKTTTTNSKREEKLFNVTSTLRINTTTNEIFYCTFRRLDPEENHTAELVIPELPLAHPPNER
T2 sequence (Q9NZQ7 19-238 limits assumed): as above

Binder | Kd [1] | koff [1] | kon [1] | EC50 (human PD-L1-Fc protein [2]) | EC50 (human PD-L1-Fc protein [3])
Hu67F3G7-8 (antibody, V domains shown, humanized) VH: EVQLVQSGAEVKKPGASVKVSCKASGYIFTDFWVSWVRQAPGQGLEWIGEIYPNSGVSRYNEKFKGRVTMTVDKSISTAYMELSRLRSDDTAVYYCTKYFGYTYWFGYWGQGTLVTVSS VL: DTVLTQSPSSLSASVGDRVTITCRASKSVSTYMHWYQQKPGKAPKLLIYSASHLESGVPSRFSGSGSGTDFTLTISSLQPEDFATYYCQQSNELPVTFGGGTKVEIK | 0.0356 nM | 9.84e-05 s⁻¹ | 2.76e+06 M⁻¹ s⁻¹ | 12.5 ng/mL | 
Hu67F3G7-11 (antibody, V domains shown, humanized) VH: EVQLVQSGAEVKKPGASVKVSCKASGYTFTDFWVSWVRQAPGQGLEWMGEIYPNSGVSRYNEKFKGRVTMTVDKSISTAYMELSRLRSDDTAVYYCARYFGYTYWFGYWGQGTLVTVSS VL: DTVLTQSPSSLSASVGDRVTITCRASKSVSTYMHWYQQKPGKQPKLLIYSASHLESGVPSRFSGSGSGTDFTLTISSLQPEDFATYYCQQSNELPVTFGGGTKVEIK | 0.0321 nM | 0.000164 s⁻¹ | 5.11e+06 M⁻¹ s⁻¹ | 8.25 ng/mL | 
Hu67F3G7-4 (antibody, V domains shown, humanized) VH: EVQLVQSGAEVKKPGASVKVSCKASGYIFTDFWVSWVRQAPGQGLEWIGEIYPNSGVSRYNEKFKGRVTMTVDKSISTAYMELSRLRSDDTAVYYCARYFGYTYWFGYWGQGTLVTVSS VL: DIQMTQSPSSLSASVGDRVTITCRASKSVSTYMHWYQQKPGKAPKLLIYSASHLESGVPSRFSGSGSGTDFTLTISSLQPEDFATYYCQQSNELPVTFGGGTKVEIK | 0.0548 nM | 0.000103 s⁻¹ | 1.88e+06 M⁻¹ s⁻¹ |  | 10.6 ng/mL
Hu67F3G7-10 (antibody, V domains shown, humanized) VH: EVQLVQSGAEVKKPGASVKVSCKASGYIFTDFWVSWVRQAPGKGLEWIGEIYPNSGVSRYNEKFKGRVTMTVDKSISTAYMELSRLRSDDTAVYYCTKYFGYTYWFGYWGQGTLVTVSS VL: DTVLTQSPSSLSASVGDRVTITCRASKSVSTYMHWYQQKPGKAPKLLIYSASHLESGVPSRFSGSGSGTDFTLTISSLQPEDFATYYCQQSNELPVTFGGGTKVEIK | 0.0392 nM | 9.34e-05 s⁻¹ | 2.38e+06 M⁻¹ s⁻¹ | 10.1 ng/mL | 
Hu67F3G7-9 (antibody, V domains shown, humanized) VH: EVQLVQSGAEVKKPGASVKVSCKASGYIFTDFWVSWVRQAPGQGLEWIGEIYPNSGVSRYNEKFKGRVTMTVDKSISTAYMELSRLRSDDTAVYYCARYFGYTYWFGYWGQGTLVTVSS VL: DTVLTQSPSSLSASVGDRVTITCRASKSVSTYMHWYQQKPGKAPKLLIYSASHLESGVPSRFSGSGSGTDFTLTISSLQPEDFATYYCQQSNELPVTFGGGTKVEIK | 0.0454 nM | 0.0001 s⁻¹ | 2.21e+06 M⁻¹ s⁻¹ | 8.45 ng/mL | 
Hu89C10H8-1 (antibody, V domains shown, humanized) VH: EVQLVESGGGLVKPGGSLRLSCAASGFTFSNYWMTWVRQAPGKGLEWVASITNTGSSTFYPDSVKGRFTISRDNAKNSLYLQMNSLRAEDTAVYYCARDTTIAPFDYWGQGTMVTVSS VL: DIQMTQSPSSLSASVGDRVTITCKASQNLNEYLNWYQQKPGKAPKRLIYKTNTLQAGVPSRFSGSGSGTDYTLTISSLQPEDFATYYCSQYNSGNTFGQGTKLEIK | 0.617 nM | 0.000465 s⁻¹ | 754000 M⁻¹ s⁻¹ |  | 6.22 ng/mL
Hu89C10H8-8 (antibody, V domains shown, humanized) VH: EVQLVESGGGLVKPGGSLRLSCAASGFTFSNYWMTWIRQAPGKGLEWVASITNTGSSTFYPDSVKGRFTISRDNAKSSLYLQMNSLRAEDTAVYYCTRDTTIAPFDYWGQGTMVTVSS VL: DIQMTQSPSSLSASVGDRVTITCKASQNLNEYLNWYQQKPGKAPKRLIYKTNTLQAGIPSRFSGSGSGTDYTLTISSLQPEDFATYYCSQYNSGNTFGQGTKLEIK | 0.102 nM | 6.66e-05 s⁻¹ | 655000 M⁻¹ s⁻¹ | 7.41 ng/mL | 
Hu89C10H8-3 (antibody, V domains shown, humanized) VH: EVQLVESGGGLVKPGGSLRLSCAASGFTFSNYWMTWIRQAPGKGLEWVASITNTGSSTFYPDSVKGRFTISRDNAKNSLYLQMNSLRAEDTAVYYCTRDTTIAPFDYWGQGTMVTVSS VL: DIQMTQSPSSLSASVGDRVTITCKASQNLNEYLNWYQQKPGKAPKRLIYKTNTLQAGVPSRFSGSGSGTDYTLTISSLQPEDFATYYCSQYNSGNTFGQGTKLEIK | 0.0785 nM | 5.79e-05 s⁻¹ | 738000 M⁻¹ s⁻¹ |  | 6.66 ng/mL

Further binders by falling Kd [1], results first:

Kd [1] | koff [1] | kon [1] | EC50 (human PD-L1-Fc protein [2]) | EC50 (human PD-L1-Fc protein [3]) | Binder
0.736 nM | 0.000494 s⁻¹ | 671000 M⁻¹ s⁻¹ |  | 6.37 ng/mL | Hu89C10H8-5 (antibody, V domains shown, humanized) VH: EVQLVESGGGLVKPGGSLRLSCAASGFTFSNYWMTWVRQAPGKGLEWVASITNTGSSTFYPDSVKGRFTISRDNAKNSLYLQMNSLRAEDTAVYYCARDTTIAPFDYWGQGTMVTVSS VL: DIQMTQSPSSLSASVGDRVTITCKASQNLNEYLNWYQQKPGKAPKRLIYKTNTLQAGIPSRFSGSGSGTDYTLTISSLQPEDFATYYCSQYNSGNTFGQGTKLEIK
0.133 nM | 8.51e-05 s⁻¹ | 641000 M⁻¹ s⁻¹ |  | 7.28 ng/mL | Hu89C10H8-2 (antibody, V domains shown, humanized) VH: EVQLVESGGGLVKPGGSLRLSCAASGFTFSNYWMTWVRQAPGKGLEWVASITNTGSSTFYPDSVKGRFTISRDNAKNSLYLQMNSLRAEDTAVYYCTRDTTIAPFDYWGQGTMVTVSS VL: DIQMTQSPSSLSASVGDRVTITCKASQNLNEYLNWYQQKPGKAPKRLIYKTNTLQAGVPSRFSGSGSGTDYTLTISSLQPEDFATYYCSQYNSGNTFGQGTKLEIK
0.122 nM | 8.56e-05 s⁻¹ | 701000 M⁻¹ s⁻¹ |  | 6.51 ng/mL | Hu89C10H8-6 (antibody, V domains shown, humanized) VH: EVQLVESGGGLVKPGGSLRLSCAASGFTFSNYWMTWVRQAPGKGLEWVASITNTGSSTFYPDSVKGRFTISRDNAKNSLYLQMNSLRAEDTAVYYCTRDTTIAPFDYWGQGTMVTVSS VL: DIQMTQSPSSLSASVGDRVTITCKASQNLNEYLNWYQQKPGKAPKRLIYKTNTLQAGIPSRFSGSGSGTDYTLTISSLQPEDFATYYCSQYNSGNTFGQGTKLEIK
0.0655 nM | 0.000121 s⁻¹ | 1.86e+06 M⁻¹ s⁻¹ |  | 12.5 ng/mL | Hu67F3G7-1 (antibody, V domains shown, humanized) VH: EVQLVQSGAEVKKPGASVKVSCKASGYTFTDFWVSWVRQAPGQGLEWMGEIYPNSGVSRYNEKFKGRVTMTVDKSISTAYMELSRLRSDDTAVYYCARYFGYTYWFGYWGQGTLVTVSS VL: DIQMTQSPSSLSASVGDRVTITCRASKSVSTYMHWYQQKPGKAPKLLIYSASHLESGVPSRFSGSGSGTDFTLTISSLQPEDFATYYCQQSNELPVTFGGGTKVEIK
0.0587 nM | 0.000118 s⁻¹ | 2.01e+06 M⁻¹ s⁻¹ |  | 11.8 ng/mL | Hu67F3G7-6 (antibody, V domains shown, humanized) VH: EVQLVQSGAEVKKPGASVKVSCKASGYTFTDFWVSWVRQAPGQGLEWMGEIYPNSGVSRYNEKFKGRVTMTVDKSISTAYMELSRLRSDDTAVYYCARYFGYTYWFGYWGQGTLVTVSS VL: DTVLTQSPSSLSASVGDRVTITCRASKSVSTYMHWYQQKPGKAPKLLIYSASHLESGVPSRFSGSGSGTDFTLTISSLQPEDFATYYCQQSNELPVTFGGGTKVEIK
0.0351 nM | 9.01e-05 s⁻¹ | 2.56e+06 M⁻¹ s⁻¹ | 9.53 ng/mL |  | Hu67F3G7-12 (antibody, V domains shown, humanized) VH: EVQLVQSGAEVKKPGASVKVSCKASGYTFTDFWVSWVRQAPGQGLEWMGEIYPNSGVSRYNEKFKGRVTMTVDKSISTAYMELSRLRSDDTAVYYCTKYFGYTYWFGYWGQGTLVTVSS VL: DTVLTQSPSSLSASVGDRVTITCRASKSVSTYMHWYQQKPGKQPKLLIYSASHLESGVPSRFSGSGSGTDFTLTISSLQPEDFATYYCQQSNELPVTFGGGTKVEIK
